Experimental data as given in US20250290123.
Where two headings read alike, the source gives them in different places.

Experiments:
[1] = system: LigAT_C-RNAseH-Ecoli (ATCV-1 ligase fused at C-terminus to inactive E. coli RNase H) (Acanthocystis turfacea chlorella virus 1 / Escherichia coli); settings: CE ligation assay
[2] = system: LigAT-HU (control ligase); settings: CE ligation assay, control buffer, 2 h 37 C
[3] = system: LigAT-HU (control ligase); settings: 5'-phosphate; control buffer 37 C; less than 5% at 55 C
[4] = system: LigAT_C-RNAseH-Ecoli (ATCV-1 ligase fused at C-terminus to inactive E. coli RNase H) (Acanthocystis turfacea chlorella virus 1 / Escherichia coli); settings: 5'-phosphate; Buffer 1B, 37-55 C, 2 h, 1 uM ligase
[5] = system: LigAT_C-RNAseH-Sto (Acanthocystis turfacea chlorella virus 1 / Sulfolobus tokodaii); settings: 5'-phosphate; Buffer 2B, 37-55 C, 2 h

Substance	activity (% ligation yield) [1]	other results
TT junction template and substrates	50	–
GG junction template and substrates	27	activity (% ligation yield) [2]: < 10
CG junction template and substrates	17	activity (% ligation yield) [2]: < 10
TG junction template and substrates	40	–
TA junction template and substrates	45	–
GA junction template and substrates	48	–
AA junction RNA template with DNA substrates A and pA	–	activity (% ligation yield) ([1]; 5'-phosphate on SEQ 43, matched junction): 37
AG junction template and substrates	23	activity (% ligation yield) [2]: < 10
CT junction template and substrates	43	–
TC junction template and substrates	49	–
GT junction template and substrates	47	–
AT junction template and substrates	37	–
GC junction template and substrates	35	activity (% ligation yield) [2]: < 10
CC junction template and substrates	33	activity (% ligation yield) [2]: < 10
AC junction template and substrates	36	–
DNA padlock probes annealed to RNA template	–	activity (% ligated product) [3]: 25; activity (% ligated product) [4]: > 75; activity (% ligated product) [5]: > 75
CA junction template and substrates	39	–
